Laboratory results published in article PMC10154233, “Structure, sequon recognition and mechanism of tryptophan C-mannosyltransferase” (Nature Chemical Biology, 2023).
Square brackets hold non-standard residues; d marks the D form. Pra = C#CC[C@H](N)C(=O)O

What was measured:
[1] = molecular target: T1, C. elegans DPY19 (CeDPY19), tryptophan C-mannosyltransferase, with a C-terminal FLAG3 tag (C. elegans, UniProt P34413 1-683); experiment: cryo-EM structure; CeDPY19-CMT2-Fab-anti-Fab Nb complex (35 uM) with 1 mM acceptor peptide WEHI-1886493, 1-2 h on ice; conditions: both partners purified
T1 construct: C. elegans DPY19 (CeDPY19), synthetic gene construct; Eluted from the FLAG gel with FLAG peptide; no cleavage of the tag is described; also called CMT
T1 sequence: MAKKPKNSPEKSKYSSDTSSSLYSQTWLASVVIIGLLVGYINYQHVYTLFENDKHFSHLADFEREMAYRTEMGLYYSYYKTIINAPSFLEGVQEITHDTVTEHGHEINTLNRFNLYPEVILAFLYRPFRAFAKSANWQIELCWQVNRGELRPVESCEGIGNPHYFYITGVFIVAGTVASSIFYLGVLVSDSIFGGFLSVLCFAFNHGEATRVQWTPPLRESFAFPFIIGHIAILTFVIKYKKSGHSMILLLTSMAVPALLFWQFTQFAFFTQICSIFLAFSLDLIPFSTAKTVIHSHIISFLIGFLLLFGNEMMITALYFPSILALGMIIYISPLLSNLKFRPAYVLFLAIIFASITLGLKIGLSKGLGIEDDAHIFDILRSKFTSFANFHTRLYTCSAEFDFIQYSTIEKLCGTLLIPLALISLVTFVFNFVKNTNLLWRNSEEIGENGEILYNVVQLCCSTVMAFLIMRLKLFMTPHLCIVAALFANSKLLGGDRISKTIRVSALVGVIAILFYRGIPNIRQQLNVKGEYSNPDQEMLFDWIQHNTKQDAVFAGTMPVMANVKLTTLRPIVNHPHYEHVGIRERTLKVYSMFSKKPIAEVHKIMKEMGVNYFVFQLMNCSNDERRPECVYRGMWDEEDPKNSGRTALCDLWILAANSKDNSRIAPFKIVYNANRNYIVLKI

[2] = molecular target: T2, Biotinylated C. elegans DPY19 (CeDPY19) with a C-terminal Avitag (Caenorhabditis elegans (strain not …, UniProt P34413, biotin (enzymatic, BirA) on the Avitag)); experiment: ELISA; multipoint protein ELISA; 30 nM biotinylated CeDPY19 immobilised on a neutravidin-coated plate, threefold serial dilutions of purified Fab from 4 uM, 20 min, 4 °C; 20 mM HEPES pH 7.4, 150 mM NaCl, 0.01% LMNG, 0.001% CHS, 0.5% BSA; detected with HRP-protein L; conditions: both partners purified
T2 construct: C. elegans DPY19 (CeDPY19); also called biotinylated CeDPY19; target; not shown: Avitag, C-terminal, kept

B1: Synthetic acceptor octapeptide WEHI-1886493 (Ac-Pra-GSWAKWS-NH2) (peptide)
peptide: Ac-[Pra]GSWAKWS-NH2
SMILES: C#CC[C@H](NC(C)=O)C(=O)NCC(=O)N[C@@H](CO)C(=O)N[C@@H](Cc1c[nH]c2ccccc12)C(=O)N[C@@H](C)C(=O)N[C@@H](CCCCN)C(=O)N[C@@H](Cc1c[nH]c2ccccc12)C(=O)N[C@@H](CO)C(N)=O
notes: Eight residues in all: Pra (propargylglycine) followed by GSWAKWS; also called acceptor peptide; source: synthetic peptide
Q: Does B1 bind [1]?
A: binds

B2: CMT2-Fab, synthetic Fab selected by phage display against CeDPY19 (Fab, V domains shown)
VH: EVQLVESGGGLVQPGGSLRLSCAASGFNISSSSIHWVRQAPGKGLEWVASISSSYGYTSYADSVKGRFTISADTSKNTAYLQMNSLRAEDTAVYYCARSSSVYWSWWGYSAFDYWGQGTLVTVSS
VL: DIQMTQSPSSLSASVGDRVTITCRASQSVSSAVAWYQQKPGKAPKLLIYSASSLYSGVPSRFSGSRSGTDFTLTISSLQPEDFATYYCQQGASEPITFGQGTKVEIK
notes: source: E. coli C43 (Pro+), purified (Protein L, Resource S)
Q: With B2 as the binder, how does the EC50 [2] read?
A: 17 nM
